Starred links: 1 amine or outer side, 2 acyl side, 3 side chain; linkers in the order of their positions; H or OH if unused. Positions of bridges follow the written chain, without caps; N, C: chain ends. Non-standard residues stand in square brackets, D forms with d. No end group written: not given here. mXylyl = bridging moiety between residues (mXylyl(i,j)); Trp(7-aza) = N[C@@H](Cc1c[nH]c2ncccc12)C(=O)O; pXylylene = c1cc(C[*:2])ccc1C[*:1]; Phg = N[C@H](C(=O)O)c1ccccc1; Tle = CC(C)(C)[C@H](N)C(=O)O; NMeS = CN[C@@H](CO)C(=O)O; Nva = CCC[C@H](N)C(=O)O
B1: R3008 (peptide)
peptide: Ac-[Nva]C[Phg]T[Trp(7-aza)]EY[NMeS]HC[Nva]P[Nva]-NH2
modifications: linker 2-10 via mXylyl
B2: R3050 (peptide)
peptide: Ac-[Nva]C[Phg]T[Trp(7-aza)]EY[NMeS]HC[Nva]-NH2
modifications: linker 2-10 via pXylylene
B3: R3076 (peptide)
peptide: VVYENGYWEYPGVK
modifications: Ac-Nvl-Nvl-Y-E-N-Tbg-Y-azaTrp-E-Y-P-Chg-Nvl-K-(BODIPY-TMR-X) NH2
notes: R3072 with BODIPY-TMR dye on the C-terminal lysine; fluorescent probe of the FP assay; also called Probe R3076; labeled probe
B4: R3043 (peptide)
peptide: MCVERFCDVYWE-NH2
modifications: linker 2-7 via mXylyl
B5: R3002 (peptide)
peptide: VCYENGYWEYPGV
modifications: Ac-Nvl-C-Y-E-N-Tbg-Y-azaTrp-E-Y-P-Phg-Nvl-NH2
B6: R3003 (peptide)
peptide: Ac-[Nva]CYEN[Tle]Y[Trp(7-aza)]EYP[Phg]P-NH2
SMILES: CCC[C@H](NC(C)=O)C(=O)N[C@@H](CS)C(=O)N[C@@H](Cc1ccc(O)cc1)C(=O)N[C@@H](CCC(=O)O)C(=O)N[C@@H](CC(N)=O)C(=O)N[C@H](C(=O)N[C@@H](Cc1ccc(O)cc1)C(=O)N[C@@H](Cc1c[nH]c2ncccc12)C(=O)N[C@@H](CCC(=O)O)C(=O)N[C@@H](Cc1ccc(O)cc1)C(=O)N1CCC[C@H]1C(=O)N[C@H](C(=O)N1CCC[C@H]1C(N)=O)c1ccccc1)C(C)(C)C
B7: R3023 (peptide)
peptide: Ac-YPYC[Phg][Trp(7-aza)][Tle]E[Nva]NY[Nva]E-NH2
SMILES: CCC[C@H](NC(=O)[C@H](Cc1ccc(O)cc1)NC(=O)[C@H](CC(N)=O)NC(=O)[C@H](CCC)NC(=O)[C@H](CCC(=O)O)NC(=O)[C@@H](NC(=O)[C@H](Cc1c[nH]c2ncccc12)NC(=O)[C@@H](NC(=O)[C@H](CS)NC(=O)[C@H](Cc1ccc(O)cc1)NC(=O)[C@@H]1CCCN1C(=O)[C@H](Cc1ccc(O)cc1)NC(C)=O)c1ccccc1)C(C)(C)C)C(=O)N[C@@H](CCC(=O)O)C(N)=O
notes: negative control in the FP assays; also called control polypeptide; scrambled polypeptide variant of R3002

Legend:
human C5 protein [1] = biological target: T1, human C5 protein (human, UniProt P01031 19-673; P01031 678-1676); assay: cell-based or functional assay
human C5 protein [2] = biological target: T1, human C5 protein; assay: cell-based or functional assay; remark: listed apart in the source
human C5 protein [3] = biological target: T1, human C5 protein; assay: competitive fluorescence polarization vs probe R3076, Exp 2
Method: (§1) Test articles listed in Table 7 were subsequently diluted in DMSO then assay buffer, comprising 10 2-fold dilutions and were then added to the assay plate in triplicate, rapidly. The assay plate was then incubated in the Paradigm (Molecular Devices, Sunnyvale, Calif.) plate reader for 60 minutes at 25° C.
(§2) After incubation for 60 minutes, the plate was read using the Paradigm FP protocol (Molecular Devices, Sunnyvale, Calif.) and raw polarization values were imported into Graphpad Prism.

human C5 protein [4] = biological target: T1, human C5 protein; assay: competitive fluorescence polarization vs probe R3076, average of two experiments
Method: as §1, §2

human C5 protein [5] = biological target: T1, human C5 protein; assay: competitive fluorescence polarization vs probe R3076, Exp 1
Method: as §1, §2

human C5 protein [6] = biological target: T1, human C5 protein; assay: fluorescence polarization, 25 nM R3076 with increasing concentrations of C5, average of 10 to 60 minutes
Method: Polarization was measured over time, until binding reached equilibrium. K_D was determined using Graphpad Prism (using "Saturating Binding Curves, One Site—Specific Binding With Hill Slope" as the curve fit to determine K_D).

Row | Binder | Avg. IC50, human hemolysis assay (complete human sera) (human C5 protein [1]) | IC50, C5a EIA on supernatant of human RBC hemolysis assay (human C5 protein [2]) | IC50, membrane attack complex (MAC) EIA on supernatant of human RBC hemolysis assay (human C5 protein [2]) | IC50 (human C5 protein [3]) | Ki (human C5 protein [3]) | IC50 (human C5 protein [4]) | Ki (human C5 protein [4]) | IC50 (human C5 protein [5]) | Ki (human C5 protein [5]) | Kd (human C5 protein [6])
1 | B1 | 97 nM | 54.5 nM | 33 nM | – | – | – | – | – | – | –
2 | B2 | 42.9 nM | – | – | 293 nM | 57.6 nM | 280 nM | 64.3 nM | 267 nM | 71.1 nM | –
3 | B3 | 297 nM | – | – | – | – | – | – | – | – | 8.07 nM
4 | B4 | 934 nM | – | – | 4120 nM | 882 nM | 4230 nM | 874 nM | 4330 nM | 866 nM | –
5 | B5 | – | 5.4 nM | – | – | – | – | – | – | – | –
6 | B6 | 13.9 nM | – | – | 64.1 nM | 8.69 nM | 68.4 nM | 9.54 nM | 72.7 nM | 10.4 nM | –
7 | B7 | > 100000 nM | – | – | > 1000 nM | > 1000 nM | > 1000 nM | > 1000 nM | > 1000 nM | > 1000 nM | –
